Five substances from FireProtDB (doi:10.1371/journal.pone.0064824) can be followed below.

“And” between values parts separate entries of the source, which are not always exact repeats. Equal entries are not always repeated.

For the data set the following is noted: Homo sapiens, pH 7.5, Tris-HCl 20mM; for unfolding free energy / ddG of mutation (higher = less stable) / denaturant m value: 10 °C, Urea; for Tm: Thermal.
[1] abbreviates: CD, transition: 2, structure 1XWS.

Serine/threonine-protein kinase pim-1 E142D, P11309, sequence (P11309 whole entry E142D): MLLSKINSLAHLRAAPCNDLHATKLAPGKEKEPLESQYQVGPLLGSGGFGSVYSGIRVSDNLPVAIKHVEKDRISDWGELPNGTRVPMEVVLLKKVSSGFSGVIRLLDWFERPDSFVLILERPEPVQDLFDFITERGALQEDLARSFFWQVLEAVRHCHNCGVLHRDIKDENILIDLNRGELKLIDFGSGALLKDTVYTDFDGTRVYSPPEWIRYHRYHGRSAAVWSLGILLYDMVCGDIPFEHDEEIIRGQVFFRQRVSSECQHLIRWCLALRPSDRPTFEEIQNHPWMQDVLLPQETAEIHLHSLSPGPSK
Serine/threonine-protein kinase pim-1 wild type, P11309, sequence (P11309 whole entry): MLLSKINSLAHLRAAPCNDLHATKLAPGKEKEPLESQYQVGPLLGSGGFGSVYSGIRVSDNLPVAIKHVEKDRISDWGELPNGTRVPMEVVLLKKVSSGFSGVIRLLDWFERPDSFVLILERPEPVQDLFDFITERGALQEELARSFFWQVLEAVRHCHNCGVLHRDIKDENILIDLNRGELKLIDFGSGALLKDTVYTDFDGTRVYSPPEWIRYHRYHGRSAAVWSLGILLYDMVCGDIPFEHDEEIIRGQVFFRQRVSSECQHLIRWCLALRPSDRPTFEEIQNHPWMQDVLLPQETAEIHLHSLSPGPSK
Serine/threonine-protein kinase pim-1 E135K, P11309, sequence (P11309 whole entry E135K): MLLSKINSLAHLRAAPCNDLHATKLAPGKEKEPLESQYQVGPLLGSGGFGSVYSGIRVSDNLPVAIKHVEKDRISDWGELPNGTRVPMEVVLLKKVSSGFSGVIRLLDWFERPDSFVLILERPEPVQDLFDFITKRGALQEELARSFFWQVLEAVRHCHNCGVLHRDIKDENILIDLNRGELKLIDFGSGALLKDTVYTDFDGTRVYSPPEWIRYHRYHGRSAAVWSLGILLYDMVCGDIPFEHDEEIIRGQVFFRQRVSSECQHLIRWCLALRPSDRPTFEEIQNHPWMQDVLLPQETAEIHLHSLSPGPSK
Serine/threonine-protein kinase pim-1 E124Q, P11309, sequence (P11309 whole entry E124Q): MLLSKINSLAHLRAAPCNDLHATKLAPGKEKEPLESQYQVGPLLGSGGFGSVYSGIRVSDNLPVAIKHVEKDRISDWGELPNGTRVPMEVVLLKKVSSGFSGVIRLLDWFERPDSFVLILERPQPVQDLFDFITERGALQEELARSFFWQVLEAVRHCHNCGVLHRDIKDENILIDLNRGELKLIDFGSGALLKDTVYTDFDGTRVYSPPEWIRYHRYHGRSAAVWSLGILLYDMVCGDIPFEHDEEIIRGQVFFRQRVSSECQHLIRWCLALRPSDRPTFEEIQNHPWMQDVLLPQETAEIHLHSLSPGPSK
Serine/threonine-protein kinase pim-1 Y53H, P11309, sequence (P11309 whole entry Y53H): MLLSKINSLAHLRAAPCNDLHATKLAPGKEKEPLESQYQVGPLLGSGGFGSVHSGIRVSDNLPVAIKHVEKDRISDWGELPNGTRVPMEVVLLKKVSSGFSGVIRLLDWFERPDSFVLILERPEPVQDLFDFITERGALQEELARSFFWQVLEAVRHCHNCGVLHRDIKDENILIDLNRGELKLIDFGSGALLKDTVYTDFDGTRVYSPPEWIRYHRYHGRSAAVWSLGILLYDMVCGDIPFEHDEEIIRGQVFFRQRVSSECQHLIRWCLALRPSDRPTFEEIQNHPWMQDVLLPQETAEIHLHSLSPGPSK

Regarding “Serine/threonine-protein kinase pim-1 E124Q, P11309”, the unfolding free energy (Fluorescence, transition: 4, structure 1XWS) was 3.46 kcal/mol and 3.08 kcal/mol and 5.22 kcal/mol. Besides, the Tm under setting [1] was 44 °C.
For “Serine/threonine-protein kinase pim-1 E142D, P11309”, under setting [1], the “ddG of mutation (higher = less stable)” value was found to be 3.22 kcal/mol, the denaturant m value was 0.69 kcal/mol/M, the unfolding free energy was determined as 3.19 kcal/mol and the Tm was found to be 40 °C.
On to “Serine/threonine-protein kinase pim-1 Y53H, P11309”, for which, under setting [1], the “ddG of mutation (higher = less stable)” value was determined as 3.3 kcal/mol, the denaturant m value came out at 0.62 kcal/mol/M and the unfolding free energy is 3.11 kcal/mol.
Regarding “Serine/threonine-protein kinase pim-1 E135K, P11309”, under setting [1], the “ddG of mutation (higher = less stable)” value amounted to 4.59 kcal/mol, the denaturant m value stood at 0.43 kcal/mol/M, the unfolding free energy was determined as 1.82 kcal/mol and the Tm amounted to 40.5 °C.
With “Serine/threonine-protein kinase pim-1 wild type, P11309”, under “CD, transition: 2”, the denaturant m value was found to be 1.2 kcal/mol/M and the unfolding free energy is 6.41 kcal/mol. Also, the Tm (CD, transition: 3) stood at 40.5 °C.

The Tm is the temperature at the midpoint of the melting transition.
